# Reference: PMC7954794, “Protein context shapes the specificity of SH3 domain-mediated interactions in vivo” (Nature Communications, 2021)
# Test system: Sla1 PPIs
# Assay: DHFR-PCA of Sla1 SH3-swapped, -shuffled or -deleted baits (Fig. 2E, 4B, 4D, S5A)
# Assay type: cell-based, Saccharomyces cerevisiae
# Text: The stuffing of YSC84 SH3 rendered the strain sterile and was therefore not used for this study as the assays require crosses. For genes containing two SH3s (BZZ1 and BEM1), a combination of this first stuffer with a second one ([…]) coding for a highly similar linker ([…]) was used, which allowed targeting each SH3 position independently. The two N-terminal domains of SLA1, which are separated by six nucleotides, were stuffed by a single stuffer. Cells containing pCAS were selected via the G418 resistance cassette from the plasmid on YPD plates (YPD + NAT 100 μg/ml (DHFR F[1,2] selection) + G418 200 µg/mL (Bioshop Canada)). Colonies were randomly selected and grown in YPD media without G418 to allow plasmid loss. The correct insertion of the stuffer was validated by PCR and Sanger sequencing. The SH3-swapped, -shuffled, and -mutated strains were constructed following a second CRISPR–Cas9 editing step with the same procedures. The stuffer sequences were targeted by specific gRNAs (one gRNA per stuffer) and replaced by PCR amplified specific SH3 (with 40 bp homology arms) or libraries of mutated SH3 domains for Deep Mutational Scanning (DMS) with 78 bp flanking homology regions. Validation of the SH3 domain insertions was done as we previously described except for DMS libraries (see below).
# The overall DHFR-PCA pipeline is based on Tarassov et al.[43] and the procedures have also been published as a visualized protocol. The screens were performed with robotically manipulated pin tools (BM5-SC1, S&P Robotics Inc.). First, the preys were cherry-picked from 96-well plates to omnitrays in a 384 format on YPD + HPH solid media. Plates were then combined into the 1536 format on YPD + HPH. The array was constituted of 575 preys previously shown to interact physically with at least one SH3-containing protein as reported in BioGRID V3.4.16 along with 40 negative controls. The prey array comprised a border of control strains of two rows and two columns corresponding to the PPI between LSM8-DHFR F[1,2] and CDC39-DHFR F[3]. This double border was used to remove border effects. Preys are present in duplicate at a randomized position in the 1536 array (except for YAL041W which is present four times per array). Baits were crossed with two prey plates, resulting in four independent bait–prey tests for each PPI. Baits were grown in liquid YPD + NAT and then transferred on solid YPD + NAT omnitrays. They were then replicated on YPD + NAT omnitrays in 1536 array format. Mating of DHFR F[1,2] baits with DHFR F[3] preys was done on YPD followed by incubation at 30 °C for 48 h. Two diploid selection steps were performed by replicating the plates on YPD + NAT + HPH and incubating them for 48 h at 30 °C. Pictures were taken at the end of the second diploid selection for quality control. All images were acquired with a EOS Rebel T5i camera (Canon). Finally, the diploid cells were replicated on omnitrays containing solid PCA selection media and incubated for 4 days as a first selection step in a spImager custom robotic platform (S&P Robotics Inc.). Cells were replicated for a second PCA selection step and incubated in the same manner. The last time point of the second PCA selection step was used for the data analysis as in previous studies using this method.
# A separate DHFR-PCA screen was performed for the Sla1 SH3 shuffling experiment, with the same analysis as previously described. Three plates had no detectable level of background, which correspond to the second plate of the three Sla1 SH3 WT re-insertion controls. They were attributed the average of the background of the three first plates of the same baits. The threshold was also determined based on the distribution of the PCA scores of all PPIs and corresponds to the top 2.75% of all colonies detected in this experiment. […] Almost all true PPIs are from four replicates (96.2%). […]
molecule,measurement,setting,value
"WT¦WT¦WT (protein, UniProt P32790 1-1244, looked up) Actin cytoskeleton-regulatory …: MTVFLGIYRAVYAYEPQTPEELAIQEDDLLYLLQKSDIDDWWTVKKRVIGSDSEEPVGLVPSTYIEEAPVLKKVRAIYDYEQVQNADEELTFHENDVFDVFDDKDADWLLVKSTVSNEFGFIPGNYVEPENGSTSKQEQAPAAAEAPAATPAAAPASAAVLPTNFLPPPQHNDRARMMQSKEDQAPDEDEEGPPPAMPARPTATTETTDATAAAVRSRTRLSYSDNDNDDEEDDYYYNSNSNNVGNHEYNTEYHSWNVTEIEGRKKKKAKLSIGNNKINFIPQKGTPHEWSIDKLVSYDNEKKHMFLEFVDPYRSLELHTGNTTTCEEIMNIIGEYKGASRDPGLREVEMASKSKKRGIVQYDFMAESQDELTIKSGDKVYILDDKKSKDWWMCQLVDSGKSGLVPAQFIEPVRDKKHTESTASGIIKSIKKNFTKSPSRSRSRSRSKSNANASWKDDELQNDVVGSAAGKRSRKSSLSSHKKNSSATKDFPNPKKSRLWVDRSGTFKVDAEFIGCAKGKIHLHKANGVKIAVAADKLSNEDLAYVEKITGFSLEKFKANDGSSSRGTDSRDSERERRRRLKEQEEKERDRRLKERELYELKKARELLDEERSRLQEKELPPIKPPRPTSTTSVPNTTSVPPAESSNNNNSSNKYDWFEFFLNCGVDVSNCQRYTINFDREQLTEDMMPDINNSMLRTLGLREGDIVRVMKHLDKKFGRENIASIPTNATGNMFSQPDGSLNVATSPETSLPQQLLPQTTSPAQTAPSTSAETDDAWTVKPASKSESNLLSKKSEFTGSMQDLLDLQPLEPKKAAASTPEPNLKDLEPVKTGGTTVPAAPVSSAPVSSAPAPLDPFKTGGNNILPLSTGFVMMPMITGGDMLPMQRTGGFVVPQTTFGMQSQVTGGILPVQKTGNGLIPISNTGGAMMPQTTFGAAATVLPLQKTGGGLIPIATTGGAQFPQTSFNVQGQQQLPTGSILPVQKTANGLISANTGVSMPTVQRTGGTMIPQTSFGVSQQLTGGAMMTQPQNTGSAMMPQTSFNAVPQITGGAMMPQTSFNALPQVTGGAMMPLQRTGGALNTFNTGGAMIPQTSFSSQAQNTGGFRPQSQFGLTLQKTGGIAPLNQNQFTGGAMNTLSTGGVLQQQQPQTMNTFNTGGVMQELQMMTTFNTGGAMQQPQMMNTFNTDGIMQQPQMMNTFNTGGAMQQPQQQALQNQPTGFGFGNGPQQSRQANIFNATASNPFGF",Protein-protein interaction distance between Sla1 baits,distance to bait ABP1¦WT¦WT,8.25
same,Protein-protein interaction distance between Sla1 baits,"distance to bait ABP1¦WT¦WT, listed as WT¦WT¦WT*",10.6959
same,Protein-protein interaction distance between Sla1 baits,distance to bait D¦D¦D,16.1793
same,Protein-protein interaction distance between Sla1 baits,"distance to bait D¦D¦D, listed as WT¦WT¦WT*",19.5303
same,Protein-protein interaction distance between Sla1 baits,distance to bait D¦D¦SH3-1,16.1305
same,Protein-protein interaction distance between Sla1 baits,"distance to bait D¦D¦SH3-1, listed as WT¦WT¦WT*",19.4574
same,Protein-protein interaction distance between Sla1 baits,distance to bait D¦D¦WT,16.2907
same,Protein-protein interaction distance between Sla1 baits,"distance to bait D¦D¦WT, listed as WT¦WT¦WT*",19.6881
same,Protein-protein interaction distance between Sla1 baits,distance to bait D¦WT¦D,11.2982
same,Protein-protein interaction distance between Sla1 baits,"distance to bait D¦WT¦D, listed as WT¦WT¦WT*",13.9439
same,Protein-protein interaction distance between Sla1 baits,distance to bait D¦WT¦SH3-1,14.8539
same,Protein-protein interaction distance between Sla1 baits,"distance to bait D¦WT¦SH3-1, listed as WT¦WT¦WT*",18.0045
same,Protein-protein interaction distance between Sla1 baits,distance to bait D¦WT¦SH3-2,16.1112
same,Protein-protein interaction distance between Sla1 baits,"distance to bait D¦WT¦SH3-2, listed as WT¦WT¦WT*",19.4593
same,Protein-protein interaction distance between Sla1 baits,distance to bait D¦WT¦WT,11.2206
same,Protein-protein interaction distance between Sla1 baits,"distance to bait D¦WT¦WT, listed as WT¦WT¦WT*",13.8561
same,Protein-protein interaction distance between Sla1 baits,distance to bait SH3-2¦SH3-1¦WT,14.7068
same,Protein-protein interaction distance between Sla1 baits,"distance to bait SH3-2¦SH3-1¦WT, listed as WT¦WT¦WT*",17.8199
same,Protein-protein interaction distance between Sla1 baits,distance to bait SH3-2¦WT¦D,16.5686
same,Protein-protein interaction distance between Sla1 baits,"distance to bait SH3-2¦WT¦D, listed as WT¦WT¦WT*",19.9645
same,Protein-protein interaction distance between Sla1 baits,distance to bait SH3-2¦WT¦WT,10.6088
same,Protein-protein interaction distance between Sla1 baits,"distance to bait SH3-2¦WT¦WT, listed as WT¦WT¦WT*",13.1093
same,Protein-protein interaction distance between Sla1 baits,distance to bait SH3-3¦SH3-1¦D,6.071
same,Protein-protein interaction distance between Sla1 baits,"distance to bait SH3-3¦SH3-1¦D, listed as WT¦WT¦WT*",7.132
same,Protein-protein interaction distance between Sla1 baits,distance to bait SH3-3¦SH3-1¦SH3-2,11.1253
same,Protein-protein interaction distance between Sla1 baits,"distance to bait SH3-3¦SH3-1¦SH3-2, listed as WT¦WT¦WT*",13.2567
same,Protein-protein interaction distance between Sla1 baits,distance to bait SH3-3¦WT¦D,6.23
same,Protein-protein interaction distance between Sla1 baits,"distance to bait SH3-3¦WT¦D, listed as WT¦WT¦WT*",7.588
same,Protein-protein interaction distance between Sla1 baits,distance to bait SH3-3¦WT¦SH3-1,7.451
same,Protein-protein interaction distance between Sla1 baits,"distance to bait SH3-3¦WT¦SH3-1, listed as WT¦WT¦WT*",7.53
same,Protein-protein interaction distance between Sla1 baits,distance to bait SH3-3¦WT¦WT,5.911
same,Protein-protein interaction distance between Sla1 baits,"distance to bait SH3-3¦WT¦WT, listed as WT¦WT¦WT*",7.517
same,Protein-protein interaction distance between Sla1 baits,distance to bait WT*¦WT¦WT,6.431
same,Protein-protein interaction distance between Sla1 baits,"distance to bait WT*¦WT¦WT, listed as WT¦WT¦WT*",3.21
same,Protein-protein interaction distance between Sla1 baits,distance to bait WT¦ABP1¦WT,7.491
same,Protein-protein interaction distance between Sla1 baits,"distance to bait WT¦ABP1¦WT, listed as WT¦WT¦WT*",10.0527
same,Protein-protein interaction distance between Sla1 baits,distance to bait WT¦D¦D,10.9978
same,Protein-protein interaction distance between Sla1 baits,"distance to bait WT¦D¦D, listed as WT¦WT¦WT*",13.667
same,Protein-protein interaction distance between Sla1 baits,distance to bait WT¦D¦SH3-2,12.0771
same,Protein-protein interaction distance between Sla1 baits,"distance to bait WT¦D¦SH3-2, listed as WT¦WT¦WT*",14.877
same,Protein-protein interaction distance between Sla1 baits,distance to bait WT¦D¦WT,11.0221
same,Protein-protein interaction distance between Sla1 baits,"distance to bait WT¦D¦WT, listed as WT¦WT¦WT*",13.7143
same,Protein-protein interaction distance between Sla1 baits,distance to bait WT¦SH3-1¦D,6.357
same,Protein-protein interaction distance between Sla1 baits,"distance to bait WT¦SH3-1¦D, listed as WT¦WT¦WT*",7.675
same,Protein-protein interaction distance between Sla1 baits,distance to bait WT¦SH3-1¦WT,5.709
same,Protein-protein interaction distance between Sla1 baits,"distance to bait WT¦SH3-1¦WT, listed as WT¦WT¦WT*",7.171
same,Protein-protein interaction distance between Sla1 baits,distance to bait WT¦SH3-3¦D,9.961
same,Protein-protein interaction distance between Sla1 baits,"distance to bait WT¦SH3-3¦D, listed as WT¦WT¦WT*",12.4074
same,Protein-protein interaction distance between Sla1 baits,distance to bait WT¦SH3-3¦SH3-2,12.7354
same,Protein-protein interaction distance between Sla1 baits,"distance to bait WT¦SH3-3¦SH3-2, listed as WT¦WT¦WT*",15.4687
same,Protein-protein interaction distance between Sla1 baits,distance to bait WT¦SH3-3¦WT,10.0693
same,Protein-protein interaction distance between Sla1 baits,"distance to bait WT¦SH3-3¦WT, listed as WT¦WT¦WT*",12.5958
same,Protein-protein interaction distance between Sla1 baits,distance to bait WT¦WT*¦WT,6.129
same,Protein-protein interaction distance between Sla1 baits,"distance to bait WT¦WT*¦WT, listed as WT¦WT¦WT*",3.181
same,Protein-protein interaction distance between Sla1 baits,distance to bait WT¦WT¦ABP1,9
same,Protein-protein interaction distance between Sla1 baits,"distance to bait WT¦WT¦ABP1, listed as WT¦WT¦WT*",10.6328
same,Protein-protein interaction distance between Sla1 baits,distance to bait WT¦WT¦D,5.067
same,Protein-protein interaction distance between Sla1 baits,"distance to bait WT¦WT¦D, listed as WT¦WT¦WT*",7.2651
same,Protein-protein interaction distance between Sla1 baits,distance to bait WT¦WT¦SH3-1,4.945
same,Protein-protein interaction distance between Sla1 baits,"distance to bait WT¦WT¦SH3-1, listed as WT¦WT¦WT*",5.794
same,Protein-protein interaction distance between Sla1 baits,distance to bait WT¦WT¦SH3-2,5.746
same,Protein-protein interaction distance between Sla1 baits,"distance to bait WT¦WT¦SH3-2, listed as WT¦WT¦WT*",6.816
same,Protein-protein interaction distance between Sla1 baits,distance to bait WT¦WT¦WT,0
same,Protein-protein interaction distance between Sla1 baits,distance to bait WT¦WT¦WT*,6.956
same,Protein-protein interaction distance between Sla1 baits,"distance to bait WT¦WT¦WT*, listed as WT¦WT¦WT*",0
same,Protein-protein interaction distance between Sla1 baits,"distance to bait WT¦WT¦WT, listed as WT¦WT¦WT*",6.956
